Legend:
Test in all cases: cross-linking; XL-MS, 2 mM BS3 on ice 2 h, purified TRiC with associated tubulin after 1 mM ATP, 5 mM MgCl2, 5 mM Al(NO3)3, 30 mM NaF (ATP-AlFx) 1 h 37 °C
Settings in all cases: both partners purified
CCT7 = molecular target: T1, CCT7 (human, UniProt Q99832 1-543)
T1 construct: CCT7 subunit of human TRiC/CCT, endogenous; stood in the assays as a subunit of the whole TRiC complex; also called TRiC subunit CCT7; source: endogenous, HEK293F cells, purified as a subunit of TRiC
T1 sequence (looked up): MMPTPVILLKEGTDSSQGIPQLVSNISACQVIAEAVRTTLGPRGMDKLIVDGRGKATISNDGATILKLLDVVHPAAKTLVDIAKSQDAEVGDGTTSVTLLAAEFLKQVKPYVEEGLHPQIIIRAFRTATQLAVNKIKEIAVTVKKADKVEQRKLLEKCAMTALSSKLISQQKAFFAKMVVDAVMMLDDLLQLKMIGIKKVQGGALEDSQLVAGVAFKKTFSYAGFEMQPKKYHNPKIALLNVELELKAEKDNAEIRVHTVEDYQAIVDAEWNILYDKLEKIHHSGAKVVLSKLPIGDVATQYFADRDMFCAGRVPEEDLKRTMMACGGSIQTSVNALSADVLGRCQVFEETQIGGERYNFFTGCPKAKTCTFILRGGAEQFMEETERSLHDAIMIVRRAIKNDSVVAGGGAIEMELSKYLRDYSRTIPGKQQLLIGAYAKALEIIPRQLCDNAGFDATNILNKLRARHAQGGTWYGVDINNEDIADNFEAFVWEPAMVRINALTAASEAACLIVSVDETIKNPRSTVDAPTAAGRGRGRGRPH

CCT8 = molecular target: T2, CCT8 (human, UniProt P50990 1-548)
T2 construct: CCT8 subunit of human TRiC/CCT, endogenous; stood in the assays as a subunit of the whole TRiC complex; also called TRiC subunit CCT8; CCT8’ (copy in the trans ring); source: endogenous, HEK293F cells, purified as a subunit of TRiC
T2 sequence (looked up): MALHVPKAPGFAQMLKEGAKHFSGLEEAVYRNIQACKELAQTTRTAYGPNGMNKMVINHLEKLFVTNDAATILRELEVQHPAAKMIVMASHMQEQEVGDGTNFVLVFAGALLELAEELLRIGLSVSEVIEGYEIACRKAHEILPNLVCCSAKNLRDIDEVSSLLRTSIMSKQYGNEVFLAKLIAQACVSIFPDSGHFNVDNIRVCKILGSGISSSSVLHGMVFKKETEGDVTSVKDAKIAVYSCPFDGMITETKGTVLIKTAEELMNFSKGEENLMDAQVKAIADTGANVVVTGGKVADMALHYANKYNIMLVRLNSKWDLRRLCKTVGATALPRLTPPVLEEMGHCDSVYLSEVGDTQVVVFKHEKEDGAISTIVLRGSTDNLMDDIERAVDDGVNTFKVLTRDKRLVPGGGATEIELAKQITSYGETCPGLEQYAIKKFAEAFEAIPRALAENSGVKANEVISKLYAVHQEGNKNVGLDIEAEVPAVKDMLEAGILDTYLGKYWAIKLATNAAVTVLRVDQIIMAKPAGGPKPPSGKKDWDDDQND

CCT4 = molecular target: T3, CCT4 (human, UniProt P50991 1-539)
T3 construct: CCT4 subunit of human TRiC/CCT, endogenous; stood in the assays as a subunit of the whole TRiC complex; also called TRiC subunit CCT4; source: endogenous, HEK293F cells, purified as a subunit of TRiC
T3 sequence (looked up): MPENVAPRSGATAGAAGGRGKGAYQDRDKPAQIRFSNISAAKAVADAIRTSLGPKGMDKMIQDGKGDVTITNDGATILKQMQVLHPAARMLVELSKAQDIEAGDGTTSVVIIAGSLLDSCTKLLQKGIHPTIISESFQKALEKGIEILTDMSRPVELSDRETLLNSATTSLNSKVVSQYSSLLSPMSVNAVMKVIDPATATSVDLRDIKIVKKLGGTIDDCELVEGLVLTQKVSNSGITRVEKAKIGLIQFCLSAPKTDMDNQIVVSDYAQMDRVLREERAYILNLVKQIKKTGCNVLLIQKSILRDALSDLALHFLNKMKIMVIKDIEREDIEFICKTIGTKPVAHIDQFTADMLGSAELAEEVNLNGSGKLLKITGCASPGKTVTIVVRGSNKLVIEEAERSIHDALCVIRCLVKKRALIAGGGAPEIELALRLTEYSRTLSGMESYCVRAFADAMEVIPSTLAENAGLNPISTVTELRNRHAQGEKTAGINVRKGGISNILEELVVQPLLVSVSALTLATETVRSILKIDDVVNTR

CCT3 = molecular target: T4, CCT3 (human, UniProt P49368 1-545)
T4 construct: CCT3 subunit of human TRiC/CCT, endogenous; stood in the assays as a subunit of the whole TRiC complex; also called TRiC subunit CCT3; source: endogenous, HEK293F cells, purified as a subunit of TRiC
T4 sequence (looked up): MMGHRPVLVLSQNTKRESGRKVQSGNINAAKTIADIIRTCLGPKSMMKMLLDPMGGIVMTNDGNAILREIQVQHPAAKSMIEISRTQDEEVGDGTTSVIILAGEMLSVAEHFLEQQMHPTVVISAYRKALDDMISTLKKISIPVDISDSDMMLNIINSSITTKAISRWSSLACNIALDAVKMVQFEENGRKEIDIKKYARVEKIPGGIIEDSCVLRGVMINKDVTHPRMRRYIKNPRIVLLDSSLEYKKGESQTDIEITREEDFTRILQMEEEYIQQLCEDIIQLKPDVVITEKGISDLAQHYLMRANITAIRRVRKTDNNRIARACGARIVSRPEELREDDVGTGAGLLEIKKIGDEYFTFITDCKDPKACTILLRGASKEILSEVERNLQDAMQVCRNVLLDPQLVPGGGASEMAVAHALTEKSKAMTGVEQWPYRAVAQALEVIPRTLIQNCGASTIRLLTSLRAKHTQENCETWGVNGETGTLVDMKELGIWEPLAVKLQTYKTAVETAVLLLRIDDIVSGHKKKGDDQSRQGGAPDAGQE

CCT5 = molecular target: T5, CCT5 (human, UniProt P48643 1-541)
T5 construct: CCT5 subunit of human TRiC/CCT, endogenous; stood in the assays as a subunit of the whole TRiC complex; also called TRiC subunit CCT5; source: endogenous, HEK293F cells, purified as a subunit of TRiC
T5 sequence (P48643 whole entry): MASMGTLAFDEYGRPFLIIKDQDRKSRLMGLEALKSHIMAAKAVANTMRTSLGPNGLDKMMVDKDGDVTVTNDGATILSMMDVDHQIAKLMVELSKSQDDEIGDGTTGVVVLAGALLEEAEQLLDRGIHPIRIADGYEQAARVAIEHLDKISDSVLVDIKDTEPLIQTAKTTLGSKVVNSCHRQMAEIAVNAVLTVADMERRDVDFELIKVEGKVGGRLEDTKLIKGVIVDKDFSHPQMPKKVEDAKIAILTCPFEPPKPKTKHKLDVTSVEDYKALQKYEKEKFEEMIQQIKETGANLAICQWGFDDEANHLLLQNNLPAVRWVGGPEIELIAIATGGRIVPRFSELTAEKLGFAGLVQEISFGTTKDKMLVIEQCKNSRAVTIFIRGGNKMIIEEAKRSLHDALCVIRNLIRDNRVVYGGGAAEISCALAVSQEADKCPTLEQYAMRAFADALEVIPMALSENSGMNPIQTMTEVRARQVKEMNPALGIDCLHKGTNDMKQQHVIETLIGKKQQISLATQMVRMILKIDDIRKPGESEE

- binding result (CCT7): binds
- binding result (CCT8): binds
- binding result (CCT4): binds
- binding result (CCT3): binds
- binding result (CCT5): binds
B1: β-tubulin (TUBB5) (natural protein, human (endogenous in HEK293F), UniProt P07437 1-444, looked up)
chain: MREIVHIQAGQCGNQIGAKFWEVISDEHGIDPTGTYHGDSDLQLDRISVYYNEATGGKYVPRAILVDLEPGTMDSVRSGPFGQIFRPDNFVFGQSGAGNNWAKGHYTEGAELVDSVLDVVRKEAESCDCLQGFQLTHSLGGGTGSGMGTLLISKIREEYPDRIMNTFSVVPSPKVSDTVVEPYNATLSVHQLVENTDETYCIDNEALYDICFRTLKLTTPTYGDLNHLVSATMSGVTTCLRFPGQLNADLRKLAVNMVPFPRLHFFMPGFAPLTSRGSQQYRALTVPELTQQVFDAKNMMAACDPRHGRYLTVAAVFRGRMSMKEVDEQMLNVQNKNSSYFVEWIPNNVKTAVCDIPPRGLKMAVTFIGNSTAIQELFKRISEQFTAMFRRKAFLHWYTGEGMDEMEFTEAESNMNDLVSEYQQYQDATAEEEEDFGEEAEEEA
notes: β-tubulin (TUBB5), human, endogenous; identified by MS and western blot; folding intermediate to near-natively folded, depending on the state of TRiC; also called substrate; source: endogenous, HEK293F cells, co-purified with TRiC

Source: PMC10188570, “Pathway and mechanism of tubulin folding mediated by TRiC/CCT along its ATPase cycle revealed using cryo-EM” (Communications Biology, 2023)
